Read-outs that look alike come from different tables or passages of the source.
T1: D2.8.11, a peptide epitope for murine 763 (human)
T1 construct: also called antigen D2.8.11; peptide D2.8.11
T1 chain: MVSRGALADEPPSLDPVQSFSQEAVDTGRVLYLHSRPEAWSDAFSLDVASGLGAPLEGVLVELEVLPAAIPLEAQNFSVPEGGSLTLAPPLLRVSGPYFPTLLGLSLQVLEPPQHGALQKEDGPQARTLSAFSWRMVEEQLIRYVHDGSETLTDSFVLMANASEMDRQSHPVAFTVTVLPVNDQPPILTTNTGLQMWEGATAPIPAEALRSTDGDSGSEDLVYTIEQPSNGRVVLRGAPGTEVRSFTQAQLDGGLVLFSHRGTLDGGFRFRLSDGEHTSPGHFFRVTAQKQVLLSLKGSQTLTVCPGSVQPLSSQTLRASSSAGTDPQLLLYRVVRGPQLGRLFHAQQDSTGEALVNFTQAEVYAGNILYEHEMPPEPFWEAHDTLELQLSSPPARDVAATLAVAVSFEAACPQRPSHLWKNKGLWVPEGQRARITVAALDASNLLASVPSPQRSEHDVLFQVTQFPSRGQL


Assays:
[1] = target: T1, D2.8.11, a peptide epitope for murine …; test: SPR, Biacore T-100, D2.8.11 on CM5 chip, bivalent analyte model
Protocol: (§1) CMS sensor chip (Research grade) and related reagents were purchased from Biacore USA (Piscataway, N.J.). […] The system first run 20× cycles of buffer only to get stable baseline levels. […] Samples (60 μL) were injected over the sensor surface at a flow rate of 30 μL/min over 2 min. Association time was set for one minute; dissociation time was set for from five minutes to 30 minutes. Following completion of the association phase, dissociation was monitored in HBS-E buffer containing 250 mM NaCl at the same flow rate. At the end of each cycle, the surface was regenerated using 50 μL 20 mM NaOH at a flow rate of 50 μL/min over one minute and 100 μL 4M MgCl₂ at a flow rate of 50 μL/min over two minutes.

[2] = target: T2, anti-763 idiotype antibody MK2-23; test: SPR, Biacore T-100, MK2-23 on CM5 chip, monovalent analyte model
T2 construct: Immobilized on the CM5 chip; also called anti-idiotype MK2-23
Protocol: as §1

[3] = target: T1, D2.8.11, a peptide epitope for murine …; test: SPR, Biacore T-100
[4] = target: T2, anti-763 idiotype antibody MK2-23; test: SPR, Biacore T-100, MK2-23 on CM5 chip, monovalent analyte model; remark: listed apart in the source
Protocol: as §1

[5] = target: T3, human chondroitin sulfate proteoglycan 4 (CSPG4) on cells (human, UniProt Q6UVK1 30-2322); test: ELISA on M14 cell-coated plates, HRP goat anti-human secondary
T3 construct: Target on CSPG4-positive M14 cells (FACS, cell ELISA) and in frozen human tissue sections (IHC); also called HMW-MAA; MCSP
Protocol: Hu763-IgG1 was also subjected to five cycles of a freeze and thaw process. […] Antigen binding was expressed as % of MFI of maximum binding at 5 μg. E, ELISA analysis of hu763-IgG1 and hu763-IgG1n on M14 cells coated plates. Binding was detected with HRP conjugated goat anti-human secondary antibody. Hu763-IgG1n was subjected to five cycles of a freeze and thaw process.
An ELISA method using coated M14 as antigen was also used to assay hu763-IgG1 and hu763-IgG1n binding (FIG. 3E). […] Hu763-IgG1n still bound to M14 cells well after subjected to five cycles of freezing and thawing process.

[6] = target: CD3 antigen (surface plasmon resonance); test: SPR, Biacore, two state reaction model

T3 sequence (Q6UVK1 30-2322 limits assumed): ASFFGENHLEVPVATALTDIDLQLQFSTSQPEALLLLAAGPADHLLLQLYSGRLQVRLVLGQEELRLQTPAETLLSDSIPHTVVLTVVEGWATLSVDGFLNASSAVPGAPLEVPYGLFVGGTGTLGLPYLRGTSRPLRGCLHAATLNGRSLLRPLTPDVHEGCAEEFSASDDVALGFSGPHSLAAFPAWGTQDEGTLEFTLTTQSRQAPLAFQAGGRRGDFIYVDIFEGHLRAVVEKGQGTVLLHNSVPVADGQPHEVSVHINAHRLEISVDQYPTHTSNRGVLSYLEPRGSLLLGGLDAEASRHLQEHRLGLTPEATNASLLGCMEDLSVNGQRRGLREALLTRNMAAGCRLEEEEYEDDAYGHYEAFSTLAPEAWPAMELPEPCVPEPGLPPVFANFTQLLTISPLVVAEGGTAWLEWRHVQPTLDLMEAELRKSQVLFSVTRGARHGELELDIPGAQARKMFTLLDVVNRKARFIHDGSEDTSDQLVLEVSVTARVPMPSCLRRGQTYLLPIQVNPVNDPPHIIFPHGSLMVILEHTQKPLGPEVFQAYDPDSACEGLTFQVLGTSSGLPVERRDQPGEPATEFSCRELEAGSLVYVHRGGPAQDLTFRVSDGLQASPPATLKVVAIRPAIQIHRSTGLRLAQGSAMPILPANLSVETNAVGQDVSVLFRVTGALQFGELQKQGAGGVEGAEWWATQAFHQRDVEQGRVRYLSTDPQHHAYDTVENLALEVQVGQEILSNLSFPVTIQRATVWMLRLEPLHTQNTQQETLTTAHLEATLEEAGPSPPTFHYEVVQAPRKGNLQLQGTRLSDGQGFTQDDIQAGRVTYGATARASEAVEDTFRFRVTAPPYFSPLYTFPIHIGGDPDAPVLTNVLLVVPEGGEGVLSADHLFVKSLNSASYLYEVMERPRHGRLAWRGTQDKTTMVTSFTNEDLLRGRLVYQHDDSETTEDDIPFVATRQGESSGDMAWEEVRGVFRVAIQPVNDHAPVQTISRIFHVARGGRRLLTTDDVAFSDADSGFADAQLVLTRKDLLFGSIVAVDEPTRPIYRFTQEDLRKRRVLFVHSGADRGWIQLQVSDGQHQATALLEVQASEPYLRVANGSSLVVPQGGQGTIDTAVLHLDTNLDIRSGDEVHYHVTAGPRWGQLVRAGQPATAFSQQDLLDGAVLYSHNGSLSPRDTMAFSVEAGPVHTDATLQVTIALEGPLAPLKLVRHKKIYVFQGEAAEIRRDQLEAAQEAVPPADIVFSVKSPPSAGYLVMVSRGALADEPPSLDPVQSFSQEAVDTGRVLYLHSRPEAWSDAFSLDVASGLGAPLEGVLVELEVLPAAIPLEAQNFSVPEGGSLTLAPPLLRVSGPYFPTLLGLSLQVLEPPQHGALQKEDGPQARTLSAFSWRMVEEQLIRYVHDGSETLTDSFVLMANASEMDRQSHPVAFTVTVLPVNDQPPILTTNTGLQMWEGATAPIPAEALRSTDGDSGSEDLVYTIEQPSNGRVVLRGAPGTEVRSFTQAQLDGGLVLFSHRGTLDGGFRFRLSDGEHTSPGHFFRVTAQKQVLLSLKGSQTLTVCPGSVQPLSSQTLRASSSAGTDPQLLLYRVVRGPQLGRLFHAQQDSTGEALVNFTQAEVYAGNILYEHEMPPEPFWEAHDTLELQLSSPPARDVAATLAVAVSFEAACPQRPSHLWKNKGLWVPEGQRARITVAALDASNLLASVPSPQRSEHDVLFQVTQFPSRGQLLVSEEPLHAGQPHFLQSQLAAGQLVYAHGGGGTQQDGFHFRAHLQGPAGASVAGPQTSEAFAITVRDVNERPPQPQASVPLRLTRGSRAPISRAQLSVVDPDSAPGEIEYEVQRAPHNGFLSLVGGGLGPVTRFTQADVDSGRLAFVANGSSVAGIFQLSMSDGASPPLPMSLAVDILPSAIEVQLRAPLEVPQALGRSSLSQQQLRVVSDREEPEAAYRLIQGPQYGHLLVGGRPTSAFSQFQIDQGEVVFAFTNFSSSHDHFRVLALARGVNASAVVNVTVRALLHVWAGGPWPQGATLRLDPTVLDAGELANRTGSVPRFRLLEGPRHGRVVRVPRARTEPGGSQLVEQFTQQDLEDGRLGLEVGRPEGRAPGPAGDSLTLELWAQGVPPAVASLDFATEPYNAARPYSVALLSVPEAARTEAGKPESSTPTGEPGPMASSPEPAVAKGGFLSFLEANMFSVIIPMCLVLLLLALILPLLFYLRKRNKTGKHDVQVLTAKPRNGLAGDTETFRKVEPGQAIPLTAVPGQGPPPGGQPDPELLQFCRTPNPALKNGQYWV

Binder | Kd [1] | koff [1] | kon [1] | Kd [2] | koff [2] | kon [2] | Kd [3] | kon [3] | Kd [4] | koff [4] | kon [4] | binding result [5] | Kd [6] | koff [6] | kon [6]
ch763IgG1, chimeric 763 HC and LC in IgG1 format (antibody, V domains shown) VH: QIQLVQSGPELKKPGETVKISCKASGYTFTDYSMHWVKKTPGKGLKWLGWINTATGEPTYADDFKGRFAISLETSARTVYLQINNLRNEDTATYFCFSYYDYWGQGTTLTVSA VL: DIKLSQSPSILSVTPGETVSLSCRASQTIYKNLHWYQQKSHRSPRLLIKYGSDSISGIPSRFTGSGSGTDYTLNINSVKPEDEGIYYCLQGYSTPWTFGGGTKLEIKR | 84 nM | 0.00295 s⁻¹ | 35100 M⁻¹ s⁻¹ | 1.89 nM | 0.000339 s⁻¹ | 179000 M⁻¹ s⁻¹ | – | – | – | – | – | – | – | – | –
murine anti-CSPG4 antibody 763.74 (antibody, V domains shown, also called m763) VH: QIQLVQSGPELKKPGETVKISCKASGYTFTDYSMHWVKKTPGKGLKWLGWINTATGEPTYADDFKGRFAISLETSARTVYLQINNLRNEDTATYFCFSYYDYWGQGTTLTVS VL: DIKLSQSPSILSVTPGETVSLSCRASQTIYKNLHWYQQKSHRSPRLLIKYGSDSISGIPSRFTGSGSGTDYTLNINSVKPEDEGIYYCLQGYSTPWTFGGGTKLEIK | 1.34 nM | 3.89e-05 s⁻¹ | 29000 M⁻¹ s⁻¹ | 2.09 nM | 0.000163 s⁻¹ | 78200 M⁻¹ s⁻¹ | 1.3 nM | 29600 M⁻¹ s⁻¹ | 0.582 nM | 8.5e-05 s⁻¹ | 146000 M⁻¹ s⁻¹ | – | – | – | –
hu763IgG1n H2-L2, humanized 763 H2 and L2 in IgG1 format with variant glycosylation (antibody, variant Fc glycosylation from expression in GnT1-deficient CHO cells (78.3% mannose, 20.5% N-acetyl glucosamine, 1.2% glucose; no fucose), also called hu763-H2L2-IgG1n) heavy: not shown light: EIVLTQSPATLSVSPGETVTLSCRASQTIYKNLHWYQQKSGLSPRLLIKYGSDSISGIPARFSGSGSGTDYTLTINSVEPEDEGIYYCLQGYSTPWTFGQGTKLEIKRTVAAPSVFIFPPSDEQLKSGTASVVCLLNNFYPREAKVQWKVDNALQSGNSQESVTEQDSKDSTYSLSSTLTLSKADYEKHKVYACEVTHQGLSSPVTKSFNRGEC | 1.15 nM | 3.28e-05 s⁻¹ | 28500 M⁻¹ s⁻¹ | – | – | – | – | – | 0.449 nM | 7.54e-05 s⁻¹ | 168000 M⁻¹ s⁻¹ | binds | – | – | –
hu763IgG4 H2-L2, humanized 763 H2 and L2 in IgG4 format (antibody) heavy: not shown light: EIVLTQSPATLSVSPGETVTLSCRASQTIYKNLHWYQQKSGLSPRLLIKYGSDSISGIPARFSGSGSGTDYTLTINSVEPEDEGIYYCLQGYSTPWTFGQGTKLEIKRTVAAPSVFIFPPSDEQLKSGTASVVCLLNNFYPREAKVQWKVDNALQSGNSQESVTEQDSKDSTYSLSSTLTLSKADYEKHKVYACEVTHQGLSSPVTKSFNRGEC | 1.22 nM | 3.5e-05 s⁻¹ | 28700 M⁻¹ s⁻¹ | – | – | – | – | – | 0.48 nM | 8.01e-05 s⁻¹ | 167000 M⁻¹ s⁻¹ | – | – | – | –
hu763-HC-OKT3, humanized 763 IgG1 with huOKT3 scFv on the C-terminus of the heavy chain (bispecific antibody, IgG-scFv format, aglycosylated Fc (N297A); also called hu763-HC-huOKT3; hu763-BsAb) heavy: not shown light: EIVLTQSPATLSVSPGETVTLSCRASQTIYKNLHWYQQKSGLSPRLLIKYGSDSISGIPARFSGSGSGTDYTLTINSVEPEDEGIYYCLQGYSTPWTFGQGTKLEIKRTVAAPSVFIFPPSDEQLKSGTASVVCLLNNFYPREAKVQWKVDNALQSGNSQESVTEQDSKDSTYSLSSTLTLSKADYEKHKVYACEVTHQGLSSPVTKSFNRGEC | – | – | – | – | – | – | – | – | – | – | – | – | 231 nM | 0.0696 s⁻¹ | 302000 M⁻¹ s⁻¹
hu763IgG1 H2-L2, humanized 763 H2 and L2 in IgG1 format (antibody, also called parental hu763) heavy: not shown light: EIVLTQSPATLSVSPGETVTLSCRASQTIYKNLHWYQQKSGLSPRLLIKYGSDSISGIPARFSGSGSGTDYTLTINSVEPEDEGIYYCLQGYSTPWTFGQGTKLEIKRTVAAPSVFIFPPSDEQLKSGTASVVCLLNNFYPREAKVQWKVDNALQSGNSQESVTEQDSKDSTYSLSSTLTLSKADYEKHKVYACEVTHQGLSSPVTKSFNRGEC | 1.29 nM | 3.81e-05 s⁻¹ | 29600 M⁻¹ s⁻¹ | 1.75 nM | 0.000181 s⁻¹ | 103000 M⁻¹ s⁻¹ | – | – | – | – | – | – | – | – | –
